Source: the supplement of paper PMC12042874
± gives the uncertainty stated by the source.

Assay: amyloid nucleation score (Sup35N fusion, yeast selection) (log enrichment); library NNK2; higher = more nucleation; inactive = no reads after selection
In short: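 On medium lacking adenine and uracil, psi-negative yeast expressing peptides of 20 random codons fused to Sup35N were grown 7 days at 30°C after a 24-hour induction with 100 μM copper sulfate. Illumina sequencing of input and output plasmid inserts gave the reads, and sequences under 100 input reads were excluded. The nucleation score is the DiMSum log enrichment of output over input reads, centred on the mode score of non-aggregating sequences.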

Substance	amyloid nucleation score
EIFFKCGFLLLGCDRPGRVR	0.413 ± 0.43
EIIFVMPVFYIFKTLCLLSA	0.332 ± 0.16
EILYFSTAFYLSTWEDTIFT	inactive
EKFESERISFRAMGQGEVLR	4.61 ± 0.079
EKGVGL	-0.449 ± 0.5
EKHWSFFTGMSVSHRLFRQN	inactive
EKRNVVVHLIGRWSTTLYWV	1.25 ± 0.49
ELALGIHYPFNKLYDINKGC	-1.5 ± 0.35
ELGHDYYSCCGFSAREYMEH	4.56 ± 0.065
ELHLFHATPRY	6.61 ± 0.067
ELTTIG	1.62 ± 0.28
ELVVHFFLFIMGACLHVENQ	-0.368 ± 1
ELVVPQWGQRRVHDLVCVEP	1.75 ± 0.29
ELVYHLSNLKG	-0.381 ± 1.1
ELYRCA	0.744 ± 0.22
EMWSISIKISGR	0.763 ± 0.57
EMYRCGWCLWMHNRLTATVR	1.86 ± 0.28
ENELSPRGCRGEPLA	0.536 ± 0.62
ENEWCCLWGRAKRVAGVQEV	0.495 ± 0.62
EPTMVRFDSLFVSDCYMSA	0.499 ± 0.4
ERDSGPEYIVCIQVVIYLGM	3.06 ± 0.052
ERFPDCCLFNLDVFVSVLNI	5.022 ± 0.027
ERGGIYWHVGRFSPDSEVTF	-0.27 ± 0.76
ERLGSLFNDGQANS	0.21 ± 0.41
ERLRSLKDNIMNFCKSRLGL	inactive

Substance	amyloid nucleation score
ERTCSIRDPNRDIPGFPFSY	inactive
ERTMF	0.396 ± 0.3
ESHFCLLATVMKDNLTVGSM	-0.578 ± 0.45
ESIGVINCYWIWATSIPLEG	inactive
ESILKHSMPSYGFFLF	inactive
ESKVAIA	-0.247 ± 0.24
ESLWMRTLMNVHYSDFRVTV	-0.174 ± 0.22
ESPTVCPANF	-0.248 ± 0.65
ESYCAC	1.55 ± 0.28
ESYKCVFRLIDWNIDYILTV	0.855 ± 0.57
ETCSAVFIN	0.041 ± 0.62
ETESG	0.72 ± 0.38
ETHIITCLRYRRRMARPHRY	inactive
ETMIHTPQELYVMYSPLTQQ	6.263 ± 0.051
ETPLTGLRNPSLNQCLMELM	0.232 ± 0.5
EVADSRKVSSATWSISSNQR	1.41 ± 0.4
EVEIVAWFGLHHSWWH	3.25 ± 0.08
EVLTVYFARRFVESSGRGTG	2.38 ± 0.13
EVVLFF	-1.35 ± 0.62
EYCACTFDWWGYQGCCD	-1.04 ± 0.63
EYFTYVSAVWKSWCTYGGPA	0.529 ± 0.38
EYSRVLTGVFLIQSYCKFGN	-0.219 ± 0.2
EYVRFYLMGISWEAEKSHAL	4.23 ± 0.11
FACNLGFMTSSFMRWSNTSA	0.356 ± 0.33
FADTKDEGLYFGLMALLLEV	0.016 ± 0.65

Substance	amyloid nucleation score
FAFAINRFCDSRRPVLCYWD	-1.21 ± 1.1
FAFIYVIT	inactive
FAIDMRYVGGQGCCILYIRR	0.075 ± 0.44
FAIRYTVMTLFCIRLGLLKV	-0.707 ± 0.27
FAMRTSKKVSRTTAGGTDPF	-0.696 ± 0.54
FASALNYTLYWSSSLTLFAL	2.54 ± 0.067
FCCSKLAPRTGYYSF	7.12 ± 0.066
FCDALQISSYTSENYGIVWS	-0.685 ± 0.36
FCDFY	-1.2 ± 0.41
FCGFMGTAPHMRPYVMPWLR	0.816 ± 0.46
FCGIGSPHYGRSAALQLRLM	0.708 ± 0.37
FCISFYTNIPSDS	-0.836 ± 0.55
FCKFMSCESRPCNIMKCWGV	0.276 ± 0.6
FCLLIGLLFTYWLSINFAIT	inactive
FCLTVLVV	4.18 ± 0.11
FCPRGFTLSSKFLCLNSLRM	-0.344 ± 0.33
FCSSFEEYICLNYVIRSEWM	3.82 ± 0.095
FCVIPIKGQRSLHIPVQLFG	-1.07 ± 0.76
FDGRETQENGNSYMCEGW	0.419 ± 0.5
FDVESMSNDLMAQWHKMLAC	-0.452 ± 0.48
FDVVIGMFVNLITRSKCGEW	1.61 ± 0.53
FDWNVDDYTFIYDN	-2.38 ± 0.75
FDWQRLMG	0.196 ± 0.64
FEACVTGMLSDRF	-0.871 ± 0.41
FEFSPQSRCTGFLSVVCMVE	0.042 ± 0.5

Substance	amyloid nucleation score
FESTAGTDKLRTEHLDPFAD	inactive
FEYNRF	0.691 ± 0.8
FFCGMRPYVLVNCLCVFREN	6.374 ± 0.029
FFFFTNRVTKAVSYGYLMDD	-0.491 ± 0.63
FFGICDVYSDMNFPIYTAY	inactive
FFGLFFNFLLMLINLPKCIV	-1.78 ± 0.75
FFLAPKGKTSYGRGN	inactive
FFMLYYGYLLSVRDSCSLCI	-0.017 ± 0.76
FFMPKGTLRSIGSLFR	-1.65 ± 1.1
FFQGSVSLCFQASHQWSFLI	3.06 ± 0.11
FFRGDVQYWRLILKYLCLLM	-1.28 ± 0.49
FFRVRPFISYYWHTLLSVLW	-1.24 ± 1.1
FFSDVIRFWNKHTCKINLLR	-1.33 ± 1
FFSNRNCLE	-1.34 ± 0.64
FFSRFERPLQCNIFKL	4.13 ± 0.12
FFSRTKYDSSRLKPWGMDIS	0.523 ± 0.64
FFSVSNDHPSFFPANVGEVH	1.74 ± 0.25
FFTLVVTVLPRRFYRFNYR	0.043 ± 1
FFVKNASSSFFLLKRLSWT	-0.59 ± 1.1
FFWNAGCSELFGEGHYNSLL	inactive
FFWYWYASYEHARTSYSIRV	inactive
FGAFVYWVFSIAYTLSRGSR	-1.03 ± 0.6
FGDSDRMRAGRLWFMWSLVA	0.639 ± 0.35
FGESTSEGYA	3.33 ± 0.12
FGFIYGTRVEGLSIVSRQSR	2.36 ± 0.14

Substance	amyloid nucleation score
FGISSNATRDWRLFDHRAVG	0.637 ± 0.47
FGKVRESCCLLAY	0.489 ± 0.3
FGLMLRTS	0.062 ± 0.41
FGLSITECGWVVLCMVWVPR	0.246 ± 0.17
FGLVHRIPRFVLWILSLGSG	-0.012 ± 1.1
FGLYRVRGRSEYRVDHTGWG	0.534 ± 0.51
FGMFM	-0.228 ± 0.32
FGNALA	-1.15 ± 0.61
FGNVMMTDAV	-0.631 ± 0.46
FGQIRCWYTMICYGQDIGFT	6.37 ± 0.047
FGRRYIMLRKYIDVIDLSIH	-0.843 ± 0.76
FGSIHGGRDEGPFLLGSSNV	-0.675 ± 1.1
FGVRDDILDSWCCTVCFSGK	0.369 ± 0.65
FGYYQLYNDQGGYYPMSSAS	inactive
FHEDRERGTIFDEFMIFRN	-0.945 ± 0.76
FHINAFISTWFSDNFCFCDY	1.31 ± 0.22
FHIQTRCMCGGMRYIFYVWY	0.432 ± 0.8
FHPPTGPPYINEMIGASTDR	-0.069 ± 0.27
FHPVWSLRKLFDCPDWTLAR	1.23 ± 0.12
FHYRFFVVMIRGCSFWHFQL	-1.57 ± 0.49
FIAGLS	-0.734 ± 0.76
FICYNTRRVVCIYLRL	0.456 ± 0.74
FIDPGHFTLDLGCSPPESEV	4.5 ± 0.085
FIDVHMEYRDKTRCWLVLVL	-0.891 ± 0.78
FIEHT	-0.716 ± 0.45

Substance	amyloid nucleation score
FIIDWSVKFGICSICLAT	5.448 ± 0.042
FILDAVGNFFCFVRHTTPQV	0.106 ± 1
FILQQAYGDWFTVDSNSCIM	-1.64 ± 1.1
FILVYTRPTLESLGEWWIRC	-0.628 ± 0.63
FIMCSDYPYHITPYPWLGPG	-0.59 ± 0.37
FINCSHQCHSIGIRVLLNCR	0.915 ± 0.19
FIPYKYAVHSS	0.166 ± 0.62
FISHIYLNESQQKSSALNTL	-1.32 ± 0.53
FISNYLMPV	2.1 ± 0.12
FISRVMVSGVLTGLAWPM	0.151 ± 0.43
FISSMGRVW	-1 ± 0.55
FITHKDYLFAGQ	-1.16 ± 0.76
FITNFGACRYCCRWHM	6.184 ± 0.042
FIVCALIKEHILTYPGKVFV	inactive
FIYCVTFVDDCRYVINLRGT	7.964 ± 0.079
FIYQFHVVFLVCQGHNNLYT	3.6 ± 0.071
FKFTWRTFESNNLMVRVWLL	-1.29 ± 0.55
FKFYSRSAYSHHRFSIYCDR	-1.22 ± 1.1
FKILCFSHGNNRM	2.07 ± 0.19
FKLFMLSSFSLMM	0.182 ± 1.1
FKNQGDLQTCLLFD	-0.012 ± 0.79
FKPLGTTEGIYTPVMYSYRG	-0.6 ± 0.27
FKVLVSLALSRECS	-0.75 ± 0.48
FLDAFFFGWDVVVRVYSSAP	-0.153 ± 1.1
FLEFLDTMWW	-0.233 ± 0.56

Substance	amyloid nucleation score
FLFFGVGMMCEARDAPMVAF	0.073 ± 1.1
FLFTQGRLGGGYIVEYLCQL	3.3 ± 0.15
FLGVFSYASSMIISVKRERS	4.1 ± 0.095
FLGYIKSLCMYYRRSGMINA	-2.17 ± 0.62
FLKSVSVRVGVILQAHAQEV	0.375 ± 0.57
FLLSISNRVDMFIFVLHHFT	inactive
FLMFQNGCFLNDILVLRNAR	-0.472 ± 0.26
FLMYFVNR	2.83 ± 0.055
FLNHCDYCVVKSRLVDMKLN	-0.296 ± 0.76
FLRIVSNVLKWQRA	2.83 ± 0.069
FLRWRDKWHG	0.861 ± 0.29
FLSINISISRVLLSDCTS	3.05 ± 0.12
FLSSIGHLF	3.89 ± 0.12
FLSWCFW	0.841 ± 0.42
FLVNVFM	8.001 ± 0.025
FLVYYINFIAAKCRPKSNLR	inactive
FLYLNAKSVRASIVWYEVKL	8.232 ± 0.048
FMARRNVAYILEYIIVYRF	-0.735 ± 0.64
FMFLEKRVGNVGRYFHEYIG	inactive
FMMIRV	inactive
